# T1: human BCMA on NCI-H929 cells (ATCC, CRL-9068) (human, UniProt Q02223 1-184)
# T1 sequence (looked up): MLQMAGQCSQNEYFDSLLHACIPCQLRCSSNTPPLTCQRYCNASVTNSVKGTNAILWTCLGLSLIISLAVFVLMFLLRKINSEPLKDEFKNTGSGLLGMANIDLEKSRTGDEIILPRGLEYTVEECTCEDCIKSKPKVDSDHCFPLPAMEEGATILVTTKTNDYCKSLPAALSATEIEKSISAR
# T2: biotinylated human BCMA-Fc, Avitag recombinant protein (ACRO Biosystems, #BC7-H82F0) (human, UniProt Q02223 1-54, biotinylated (Avitag))
# T2 construct: extracellular domain; Bought protein; also called huBCMA.Fc; recombinant human BCMA-ECD-Fc
# T2 sequence (looked up): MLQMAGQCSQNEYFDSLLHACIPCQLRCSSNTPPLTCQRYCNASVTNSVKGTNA
# B1: PR002309 (bispecific antibody, human IgG1, lambda, L234A L235A)
# light: QAVVTQEPSLTVSPGGTVTLTCRSSTGAVTTSNYANWVQQKPGQAPRGLIGGTNKRAPWTPARFSGSLLGDKAALTLLGAQPEDEAEYFCALWYSNLWVFGGGTKLTVLGQPKAAPSVTLFPPSSEELQANKATLVCLISDFYPGAVTVAWKADSSPVKAGVETTTPSKQSNNKYAASSYLSLTPEQWKSHRSYSCQVTHEGSTVEKTVAPTECS
# heavy: EVQLLESGGGLVQPGGSLRLSCAASGFTFSTYAMNWVRQAPGKGLEWVSRIRSKYNNYATYYADSVKDRFTISRDDSKSTLYLQMNSLRAEDTAVYYCVRHGNFGNSYVSWFAYWGQGTLVTVSSASTKGPSVFPLAPSSKSTSGGTAALGCLVKDYFPEPVTVSWNSGALTSGVHTFPAVLQSSGLYSLSSVVTVPSSSLGTQTYICNVNHKPSNTKVDKKVEPKSCDKTHTCPPCPAPEAAGGPSVFLFPPKPKDTLMISRTPEVTCVVVDVSHEDPEVKFNWYVDGVEVHNAKTKPREEQYNSTYRVVSVLTVLHQDWLNGKEYKCKVSNKALGAPIEKTISKAKGQPREPQVYTLPPCREEMTKNQVSLWCLVKGFYPSDIAVEWESNGQPENNYKTTPPVLDSDGSFFLYSKLTVDKSRWQQGNVFSCSVMHEALHNHYTQKSLSLSPGK
# chain: EVQLVETGGGLIQPGGSLRLSCAASGFTVSDNYMTWVRQAPGKGLEWVSVIFSGGNTYYADSVKGRFTISRDNAKNTLYLQMNSLRAEDTALYYCARRNYDDTRGTDVFDIWGQGTMVTVSSRTGGGGSGGGGSGGGGSKLEVQLVETGGGLIQPGGSLRLSCAASGFTVSDNYMTWVRQAPGKGLEWVSVIFSGGNTYYADSVKGRFTISRDNAKNTLYLQMNSLRAEDTALYYCARRNYDDTRGTDVFDIWGQGTMVTVSSASEPKSSDKTHTCPPCPAPEAAGGPSVFLFPPKPKDTLMISRTPEVTCVVVDVSHEDPEVKFNWYVDGVEVHNAKTKPREEQYNSTYRVVSVLTVLHQDWLNGKEYKCKVSNKALGAPIEKTISKAKGQPREPQVCTLPPSREEMTKNQVSLSCAVKGFYPSDIAVEWESNGQPENNYKTTPPVLDSDGSFFLVSKLTVDKSRWQQGNVFSCSVMHEALHNHYTQKSLSLSPGK
# How the values were obtained:
# [1] = target: T1, human BCMA on NCI-H929 cells (ATCC, …); test: cell-based or functional assay
# [2] = target: T1, human BCMA on NCI-H929 cells (ATCC, …); test: cell-based or functional assay; remark: listed apart in the source
# [3] = target: T3, cynomolgus monkey BCMA (ACRO Biosystems, #BCA-C82F4) (cynomolgus monkey, UniProt A0A2K5UD97 1-53); test: BLI; KD for cynomolgus monkey BCMA divided by KD for human BCMA
# T3 construct: Bought protein; also called cyBCMA.Fc
# T3 sequence (A0A2K5UD97 entry or part of it): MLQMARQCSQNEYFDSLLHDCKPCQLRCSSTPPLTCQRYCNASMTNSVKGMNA
# [4] = target: T4, human CD3 (TCR/CD3 complex) on human T cells (human, UniProt P07766 23-207); test: flow cytometry (FACS) on human T cells, Experiment 3
# T4 construct: whole, on cells
# T4 sequence (P07766 23-207, one chain of several): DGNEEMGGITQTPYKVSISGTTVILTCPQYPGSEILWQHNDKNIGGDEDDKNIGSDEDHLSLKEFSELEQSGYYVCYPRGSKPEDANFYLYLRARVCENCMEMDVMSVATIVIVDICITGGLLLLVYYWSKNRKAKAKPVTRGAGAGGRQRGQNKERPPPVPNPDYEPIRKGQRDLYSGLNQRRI
# [5] = target: T5, cynomolgus monkey CD3 (TCR/CD3 complex) on cynomolgus monkey T cells (cynomolgus monkey); test: flow cytometry (FACS) on cynomolgus monkey T cells
# T5 construct: whole, on cells
# T5 sequence (Q95LI5 22-198, one chain of several): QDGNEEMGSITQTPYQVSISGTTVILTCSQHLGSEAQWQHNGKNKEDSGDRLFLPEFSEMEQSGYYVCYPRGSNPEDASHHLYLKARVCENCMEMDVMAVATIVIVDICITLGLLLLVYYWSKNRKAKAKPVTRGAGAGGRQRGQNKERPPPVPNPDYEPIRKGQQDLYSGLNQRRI
# [6] = target: T3, cynomolgus monkey BCMA (ACRO …); test: BLI (Octet Red96e), cyBCMA.Fc on SA sensor, 1:1 global fitting
# [7] = target: T2, biotinylated human BCMA-Fc, Avitag …; test: BLI (Octet Red96e), biotinylated BCMA-Fc on SA sensor, 1:1 global fitting;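 also: Anti-BCMA antibodies analysed as binding partners of the captured BCMA antigen, with reference signals removed by double referencing before kinetic fitting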
# [8] = target: T1, human BCMA on NCI-H929 cells (ATCC, …); test: cell-based or functional assay; remark: listed apart in the source
binder,measurement,setting,value
B1,"Killing EC50 (nM), T cell + NCI-H929, + 10 ng/mL sAPRIL",[1],0.000538 nM
same,"Killing EC50 (nM), T cell + NCI-H929, + 10 ng/mL sBAFF",[1],0.000447 nM
same,"Killing EC50 (nM), T cell + NCI-H929, + 100 ng/mL sAPRIL",[1],0.000991 nM
same,"Killing EC50 (nM), T cell + NCI-H929, + 100 ng/mL sBAFF",[1],0.000474 nM
same,"Killing EC50 (nM), T cell + NCI-H929, no soluble ligand",[1],0.000439 nM
same,"IFN-γ release, EC50",[2],19.4 pM
same,"IFN-γ release, Maximum",[2],1950 pg/mL
same,"IL-2 release, EC50",[2],37.5 pM
same,"IL-2 release, Maximum",[2],222 pg/mL
same,"IL-6 release, EC50",[2],194 pM
same,"IL-6 release, Maximum",[2],209 pg/mL
same,"IL-10 release, EC50",[2],29.8 pM
same,"IL-10 release, Maximum",[2],1050 pg/mL
same,"NCI-H929 killing, EC50",[2],7.72 pM
same,"NCI-H929 killing, Maximum killing rate %",[2],69.5%
same,"TNF-α release, EC50",[2],44.5 pM
same,"TNF-α release, Maximum",[2],1300 pg/mL
same,KD ratio (cy BCMA/hu BCMA),[3],3.16
same,Maximum MFI,[4],317000 MFI
same,Maximum MFI,[5],11700 MFI
same,Kd,[6],141 pM
same,koff,[6],0.000116 s⁻¹
same,kon,[6],823000 M⁻¹ s⁻¹
same,Kd,[7],44.8 pM
same,koff,[7],1.89e-05 s⁻¹
same,kon,[7],422000 M⁻¹ s⁻¹
same,"Killing EC50 (nM), T cell + NCI-H929, + 62.5 ng/mL sBCMA",[8],0.00296 nM
same,"Killing EC50 (nM), T cell + NCI-H929, + 125 ng/mL sBCMA",[8],0.00347 nM
same,"Killing EC50 (nM), T cell + NCI-H929, + 250 ng/mL sBCMA",[8],0.005 nM
same,"Killing EC50 (nM), T cell + NCI-H929, + 500 ng/ml sBCMA",[8],0.0088 nM
same,"Killing EC50 (nM), T cell + NCI-H929, no sBCMA",[8],0.000393 nM

# Reference: patent publication US20230322953A1 (HARBOUR BIOMED SHANGHAI, published 2023)
